According to the supplement of paper PMC10266784:

B1: library; numbered along this chain (parent)
chain: MAAAAAAAAEQQSSNGPVKKSMREKAVERRSVNKEHNSNFKAGYIPIDEDRLHKTGLRGRKGNLAICVIILLFILAVINLIITLVIWAVIRIGPNGCDSMEFHESGLLRFKQVSDMGVIHPLYKSTVGGRRNENLVITGNNQPIVFQQGTTKLSVENNKTSITSDIGMQFFDPRTQNILFSTDYETHEFHLPSGVKSLNVQKASTERITSNATSDLNIKVDGRAIVRGNEGVFIMGKTIEFHMGGNMELKAENSIILNGSVMVSTTRLPSSSSGDQLGSGDWVRYKLCMCADGTLFKVQVTSQNMGCQISDNPCGNTH

Variants of: B1
Assay: SGCB cell-surface expression functional score (HA stain, bin4 vs bin1, normalised to synonymous) (log10 ratio); higher = more cell-surface SGCB (functional)
Method: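 Deep mutational scan of full-length human SGCB (YFP-SGCB-HA, NNN codon sublibraries A-F) delivered by lentivirus at low MOI into ADG-HEK293 cells stably expressing SGCA, SGCD and SGCG. YFP-positive cells were stained for surface HA on unpermeabilized cells and FACS-sorted into bins. The functional score is log10(frequency in high bin 4 / frequency in low bin 1), normalised per chunk so that synonymous variants have mean 0 and SD 0.5. Scores are the median over codons and over duplicate biological replicates; scores below -0.5 are called non-functional. Scale: negative means deleterious.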

| Variant | SGCB cell-surface expression functional score (log10) |
| --- | --- |
| MAAAAAAAAEQQSSNGPVKKSMREKAVERRSVNKEHNSNFKAGYIPIDEDRLHRTGLRGRKGNLAICVIILLFILAVINLIITLVIWAVIRIGPNGCDSMEFHESGLLRFKQVSDMGVIHPLYKSTVGGRRNENLVITGNNQPIVFQQGTTKLSVENNKTSITSDIGMQFFDPRTQNILFSTDYETHEFHLPSGVKSLNVQKASTERITSNATSDLNIKVDGRAIVRGNEGVFIMGKTIEFHMGGNMELKAENSIILNGSVMVSTTRLPSSSSGDQLGSGDWVRYKLCMCADGTLFKVQVTSQNMGCQISDNPCGNTH [K54R] | 0.2 |
| MAAAAAAAAEQQSSNGPVKKSMREKAVERRSVNKEHNSNFKAGYIPIDEDRLHSTGLRGRKGNLAICVIILLFILAVINLIITLVIWAVIRIGPNGCDSMEFHESGLLRFKQVSDMGVIHPLYKSTVGGRRNENLVITGNNQPIVFQQGTTKLSVENNKTSITSDIGMQFFDPRTQNILFSTDYETHEFHLPSGVKSLNVQKASTERITSNATSDLNIKVDGRAIVRGNEGVFIMGKTIEFHMGGNMELKAENSIILNGSVMVSTTRLPSSSSGDQLGSGDWVRYKLCMCADGTLFKVQVTSQNMGCQISDNPCGNTH [K54S] | 0.14 |
| MAAAAAAAAEQQSSNGPVKKSMREKAVERRSVNKEHNSNFKAGYIPIDEDRLHPTGLRGRKGNLAICVIILLFILAVINLIITLVIWAVIRIGPNGCDSMEFHESGLLRFKQVSDMGVIHPLYKSTVGGRRNENLVITGNNQPIVFQQGTTKLSVENNKTSITSDIGMQFFDPRTQNILFSTDYETHEFHLPSGVKSLNVQKASTERITSNATSDLNIKVDGRAIVRGNEGVFIMGKTIEFHMGGNMELKAENSIILNGSVMVSTTRLPSSSSGDQLGSGDWVRYKLCMCADGTLFKVQVTSQNMGCQISDNPCGNTH [K54P] | -0.04 |
| MAAAAAAAAEQQSSNGPVKKSMREKAVERRSVNKEHNSNFKAGYIPIDEDRLHNTGLRGRKGNLAICVIILLFILAVINLIITLVIWAVIRIGPNGCDSMEFHESGLLRFKQVSDMGVIHPLYKSTVGGRRNENLVITGNNQPIVFQQGTTKLSVENNKTSITSDIGMQFFDPRTQNILFSTDYETHEFHLPSGVKSLNVQKASTERITSNATSDLNIKVDGRAIVRGNEGVFIMGKTIEFHMGGNMELKAENSIILNGSVMVSTTRLPSSSSGDQLGSGDWVRYKLCMCADGTLFKVQVTSQNMGCQISDNPCGNTH [K54N] | 0.23 |
| MAAAAAAAAEQQSSNGPVKKSMREKAVERRSVNKEHNSNFKAGYIPIDEDRLHHTGLRGRKGNLAICVIILLFILAVINLIITLVIWAVIRIGPNGCDSMEFHESGLLRFKQVSDMGVIHPLYKSTVGGRRNENLVITGNNQPIVFQQGTTKLSVENNKTSITSDIGMQFFDPRTQNILFSTDYETHEFHLPSGVKSLNVQKASTERITSNATSDLNIKVDGRAIVRGNEGVFIMGKTIEFHMGGNMELKAENSIILNGSVMVSTTRLPSSSSGDQLGSGDWVRYKLCMCADGTLFKVQVTSQNMGCQISDNPCGNTH [K54H] | -0.42 |
| MAAAAAAAAEQQSSNGPVKKSMREKAVERRSVNKEHNSNFKAGYIPIDEDRLHGTGLRGRKGNLAICVIILLFILAVINLIITLVIWAVIRIGPNGCDSMEFHESGLLRFKQVSDMGVIHPLYKSTVGGRRNENLVITGNNQPIVFQQGTTKLSVENNKTSITSDIGMQFFDPRTQNILFSTDYETHEFHLPSGVKSLNVQKASTERITSNATSDLNIKVDGRAIVRGNEGVFIMGKTIEFHMGGNMELKAENSIILNGSVMVSTTRLPSSSSGDQLGSGDWVRYKLCMCADGTLFKVQVTSQNMGCQISDNPCGNTH [K54G] | 0.21 |
| MAAAAAAAAEQQSSNGPVKKSMREKAVERRSVNKEHNSNFKAGYIPIDEDRLHITGLRGRKGNLAICVIILLFILAVINLIITLVIWAVIRIGPNGCDSMEFHESGLLRFKQVSDMGVIHPLYKSTVGGRRNENLVITGNNQPIVFQQGTTKLSVENNKTSITSDIGMQFFDPRTQNILFSTDYETHEFHLPSGVKSLNVQKASTERITSNATSDLNIKVDGRAIVRGNEGVFIMGKTIEFHMGGNMELKAENSIILNGSVMVSTTRLPSSSSGDQLGSGDWVRYKLCMCADGTLFKVQVTSQNMGCQISDNPCGNTH [K54I] | 0.01 |
| MAAAAAAAAEQQSSNGPVKKSMREKAVERRSVNKEHNSNFKAGYIPIDEDRLHQTGLRGRKGNLAICVIILLFILAVINLIITLVIWAVIRIGPNGCDSMEFHESGLLRFKQVSDMGVIHPLYKSTVGGRRNENLVITGNNQPIVFQQGTTKLSVENNKTSITSDIGMQFFDPRTQNILFSTDYETHEFHLPSGVKSLNVQKASTERITSNATSDLNIKVDGRAIVRGNEGVFIMGKTIEFHMGGNMELKAENSIILNGSVMVSTTRLPSSSSGDQLGSGDWVRYKLCMCADGTLFKVQVTSQNMGCQISDNPCGNTH [K54Q] | -0.58 |
| MAAAAAAAAEQQSSNGPVKKSMREKAVERRSVNKEHNSNFKAGYIPIDEDRLHLTGLRGRKGNLAICVIILLFILAVINLIITLVIWAVIRIGPNGCDSMEFHESGLLRFKQVSDMGVIHPLYKSTVGGRRNENLVITGNNQPIVFQQGTTKLSVENNKTSITSDIGMQFFDPRTQNILFSTDYETHEFHLPSGVKSLNVQKASTERITSNATSDLNIKVDGRAIVRGNEGVFIMGKTIEFHMGGNMELKAENSIILNGSVMVSTTRLPSSSSGDQLGSGDWVRYKLCMCADGTLFKVQVTSQNMGCQISDNPCGNTH [K54L] | 0.21 |
| MAAAAAAAAEQQSSNGPVKKSMREKAVERRSVNKEHNSNFKAGYIPIDEDRLHMTGLRGRKGNLAICVIILLFILAVINLIITLVIWAVIRIGPNGCDSMEFHESGLLRFKQVSDMGVIHPLYKSTVGGRRNENLVITGNNQPIVFQQGTTKLSVENNKTSITSDIGMQFFDPRTQNILFSTDYETHEFHLPSGVKSLNVQKASTERITSNATSDLNIKVDGRAIVRGNEGVFIMGKTIEFHMGGNMELKAENSIILNGSVMVSTTRLPSSSSGDQLGSGDWVRYKLCMCADGTLFKVQVTSQNMGCQISDNPCGNTH [K54M] | -0.19 |
